Results on 1 molecule are retold here after US20130030156A1 (Merck Sharp & Dohme, published 2013).

In this experiment the target is T1, human ILT5 on the surface of human peripheral blood cells (human, UniProt O75022 24-631).
T1 construct: whole, on cells; Endogenous ILT5 on primary human cells; also called surface ILT5; hILT5
Put plainly: flow cytometry, TRX585 staining of human PBMCs. The source says: The latter plots show the levels of two fluorescent parameters (i.e., fluorescent antibodies) on various cell subpopulations, quantitate the proportions of cells displaying these parameters, and indicate the frequency of cells present at each point in the plot. Here, peripheral blood mononuclear cells (PBMCs) from a healthy human donor were stained with the TRX585 antibody as well as antibodies specific for the indicated cell subset. In FIG. 1A, plots depict ILT5 (TRX585) expression by gated CD56⁻CD3⁺CD4⁺ or CD56⁻CD3⁺CD8⁺ T cells. In FIG. 1B, PBMCs were stained as in (A) and subsequently stained for intracellular Foxp3. Plots show ILT5 expression by gated CD56⁻CD3⁺CD4⁺Foxp3⁺ or CD56⁻ CD3⁺CD4⁺Foxp3⁻ T cells. […] Percentages of gated cells and mean fluorescence intensity of the ILT5-staining of ILT5⁺ cells are depicted inside and above plots, respectively. […]
Peripheral blood mononuclear cells (PBMCs) from healthy human blood donors were stained with a murine monoclonal antibody (TRX585) comprising a heavy chain variable region comprising the amino acid sequence of SEQ ID NO: 2 or SEQ ID NO: 3, and a light chain variable region comprising the amino acid sequence of SEQ ID NO: 1. […] PBMCs were also stained with antibodies specific for defined hematopoietic cell lineages and analyzed for ILT5 expression by flow cytometry.

T1 sequence (O75022 24-631): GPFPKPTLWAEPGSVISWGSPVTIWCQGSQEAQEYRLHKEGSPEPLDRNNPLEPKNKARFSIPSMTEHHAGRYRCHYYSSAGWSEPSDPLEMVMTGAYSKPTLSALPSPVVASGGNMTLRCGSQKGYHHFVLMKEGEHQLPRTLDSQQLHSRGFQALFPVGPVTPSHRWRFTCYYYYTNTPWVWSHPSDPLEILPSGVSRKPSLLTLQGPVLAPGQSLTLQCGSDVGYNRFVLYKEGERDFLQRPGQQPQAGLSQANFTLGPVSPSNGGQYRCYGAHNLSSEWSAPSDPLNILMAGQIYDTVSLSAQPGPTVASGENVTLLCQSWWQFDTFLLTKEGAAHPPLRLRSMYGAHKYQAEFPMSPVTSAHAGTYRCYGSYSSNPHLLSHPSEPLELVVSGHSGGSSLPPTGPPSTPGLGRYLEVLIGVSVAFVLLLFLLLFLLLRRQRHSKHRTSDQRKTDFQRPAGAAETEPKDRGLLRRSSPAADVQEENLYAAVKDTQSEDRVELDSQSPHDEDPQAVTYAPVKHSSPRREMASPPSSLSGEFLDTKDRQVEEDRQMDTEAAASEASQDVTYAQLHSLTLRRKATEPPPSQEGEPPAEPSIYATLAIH

B1: TRX585 (8G6 mAb), mouse anti-human ILT5 monoclonal antibody (antibody, V domains shown)
VH: DVQLQESGPGLVKPSQSLFLTCSVTGYSISSSYYWNWIRQFPGNKLEWMGYISFDGSNNYNPSLKNRISITRDTSKNQFFLKLNSVTTEDTATYYCAREKENYYGSSFYYFDYWGLGTSLTVSS
VL: DIQMTQSPASLSVSVGETVTITCRASENIYSNLAWYQQKQGKSPQVLVYAATNLADGVPSRFSGSGSGTQFSLKINSLQSEDFGNYFCQHFWRIPWTFGGGTKLEIK
notes: Murine monoclonal antibody, IgG1, kappa, purified from hybridoma supernatant; also called TRX585 antibody; TRX585 mAb
Take B1: the binding result is recorded as “binds”.
